# Source: patent US20250057918A1 (YALE UNIVERSITY, published 2025)
# Positions count from the first letter of the chain named. Read-outs that look alike come from different tables or passages of the source.
# B1: wild-type mouse IL-18 (mature form) (ligand)
# chain: NFGRLHCTTAVIRNINDQVLFVDKRQPVFEDMTDIDQSASEPQTRLIIYMYKDSEVRGLAVTLSVKDSKMSTLSCKNKIISFEEMDPPENIDDIQSDLIFFQKRVPGHNKMEFESSLYEGHFLACQKEDDAFKLILKKKDENGDKSVMFTLTNLHQS
# notes: recombinant from E. coli with C-terminal hexahistidine tag in SPR; also called mIL-18 WT; WT mIL-18
# B2: mA7 (ligand)
# chain: B1 chain with N1Y, M50A, K52G, S54N, E55R, L59K
# notes: recombinant with C-terminal hexahistidine tag in SPR
# B3: 6-29 (ligand)
# chain: YFGKLESKLSVIRNLNDQVLFIDQGNRPLFEDMTDSDCRDNAPRTIFIISKYSDSRARGLAVTISVKCEKISTLSCENKIISFKEMNPPDNIKDTKSDIIFFQRNVPGHGRKMQFESSSYEGYFLACEKERDLFKLILKKEDELGDRSIMFTVQNED
# notes: recombinant with C-terminal hexahistidine tag in SPR and cell assays; also called h6-29; version 2.0 human DR-IL-18 variant
# B4: hCS2 (ligand)
# chain: YFGKLESKLSVIRNLNDQVLFIDQGNRPLFEDMTDSDCRDNAPRTIFIISTYKDKQPRAKAVTISVKCEKISTLSCENKIISFKEMNPPDNIKDTKSDIIFFQRDVPGHKHKMQFESSSYEGYFLACEKERDLFKLILKKEDELGDRSIMFTIQNED
# notes: as for B2
# B5: hCS4 (ligand)
# chain: B4 chain with Y1R, K53R, K55S, A59G, D105N, H111Y, I153V
# notes: recombinant with C-terminal hexahistidine tag in SPR and cell assays
# B6: hCS1 (ligand)
# chain: B4 chain with K55S, A59G, I153V
# notes: as for B5
# Tests used:
# [1] = molecular target: T1, mouse IL-18BP (amino acids 31-194) (mouse, UniProt Q9Z0M9 29-193, biotinylated on the AviTag (BirA ligase)); assay: SPR; KD IL-18BP / KD IL-18Rα
# T1 construct: Secreted decoy receptor; made in Expi293 cells (H7 signal peptide); the stated range is the same as for the human protein; also called mIL-18BP
# T1 sequence: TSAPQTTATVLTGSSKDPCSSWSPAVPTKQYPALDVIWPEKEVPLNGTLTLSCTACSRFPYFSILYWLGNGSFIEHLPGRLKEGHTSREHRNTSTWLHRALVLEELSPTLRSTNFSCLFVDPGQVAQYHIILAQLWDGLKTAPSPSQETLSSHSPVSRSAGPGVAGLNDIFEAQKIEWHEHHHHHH
# Procedure: (§1) By contrast, very little binding is observed with the same variants and mIL-18BP (right). (FIG. 11B) Representative surface plasmon resonance sensorgrams between immobilized biotinylated mIL-18BP and the murine DR-IL-18 variants.
# (§2) Experiments were conducted using a Biacore™ T100 (Protein analysis interaction system) and carried out at 25° C. Biotinylated IL-18Rα or TL-18BP were immobilized onto a Biacore™ biotin capture chip (Series S CAP sensor chip, GE Healthcare) to yield an Rmax of ˜50 RU (IL-18Rα) or ˜10 RU (IL-18BP). Measurements were made with serial dilutions of the IL-18 variants in HEPES buffered Saline-P+ buffer (10 mM HEPES pH 7.4, 150 mM NaCl, 0.005% surfactant P20). The surface was regenerated by three 60-see injections of regeneration buffer (3/4 (v/v) 8M guanidine hydrochloride with 1/4 (v/v) 1M sodium hydroxide). Experiments were performed in multiple channels simultaneously for increased observations. All data were analyzed with the Biacore™ T100 evaluation software version 2.0 with a 1:1 Langmuir binding model.
# [2] = molecular target: T1, mouse IL-18BP (amino acids 31-194); assay: SPR; KD BP / KD Ra normalized to WT IL-18
# [3] = molecular target: T1, mouse IL-18BP (amino acids 31-194); assay: on-yeast isotherms; KD IL-18BP / KD IL-18Rα
# [4] = molecular target: T2, mouse IL-18Rα ectodomain (amino acids 19-329) (mouse, UniProt Q61098 19-329, biotinylated on the AviTag (BirA ligase)); assay: flow cytometry, mIL-18Rα titrated on yeast-displayed murine IL-18 variant (binding isotherm, %Max)
# T2 construct: range 19-329; Secreted from Expi293 cells (H7 signal peptide); also called mIL-18Rα; Ra
# T2 sequence: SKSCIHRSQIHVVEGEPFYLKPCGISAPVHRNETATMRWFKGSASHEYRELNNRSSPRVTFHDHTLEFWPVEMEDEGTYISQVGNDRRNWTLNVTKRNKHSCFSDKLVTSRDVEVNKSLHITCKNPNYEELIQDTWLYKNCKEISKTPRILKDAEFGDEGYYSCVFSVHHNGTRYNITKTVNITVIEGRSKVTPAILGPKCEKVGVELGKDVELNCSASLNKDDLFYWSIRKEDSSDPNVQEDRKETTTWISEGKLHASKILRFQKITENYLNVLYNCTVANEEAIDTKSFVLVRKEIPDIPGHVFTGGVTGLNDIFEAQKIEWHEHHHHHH
# [5] = molecular target: T1, mouse IL-18BP (amino acids 31-194); assay: SPR; KD IL-18BP / KD IL-18Rα; SPR; ratio of two KDs
# Procedure: as §1, §2
# [6] = molecular target: T1, mouse IL-18BP (amino acids 31-194); assay: SPR; KD BP / KD Ra normalized to WT IL-18; upper end tied to mA7 by Table 9
# [7] = molecular target: T1, mouse IL-18BP (amino acids 31-194); assay: on-yeast isotherms; KD IL-18BP / KD IL-18Rα (10 µM used for NBD); on-yeast isotherms; 10 µM put in for NBD
# [8] = molecular target: T3, IL-18 receptor (IL-18R) on HEK-Blue IL-18 reporter cells (UniProt Q13478 19-541; O95256 20-599, limits assumed); assay: cell-based or functional assay
# T3 sequence (looked up) 1: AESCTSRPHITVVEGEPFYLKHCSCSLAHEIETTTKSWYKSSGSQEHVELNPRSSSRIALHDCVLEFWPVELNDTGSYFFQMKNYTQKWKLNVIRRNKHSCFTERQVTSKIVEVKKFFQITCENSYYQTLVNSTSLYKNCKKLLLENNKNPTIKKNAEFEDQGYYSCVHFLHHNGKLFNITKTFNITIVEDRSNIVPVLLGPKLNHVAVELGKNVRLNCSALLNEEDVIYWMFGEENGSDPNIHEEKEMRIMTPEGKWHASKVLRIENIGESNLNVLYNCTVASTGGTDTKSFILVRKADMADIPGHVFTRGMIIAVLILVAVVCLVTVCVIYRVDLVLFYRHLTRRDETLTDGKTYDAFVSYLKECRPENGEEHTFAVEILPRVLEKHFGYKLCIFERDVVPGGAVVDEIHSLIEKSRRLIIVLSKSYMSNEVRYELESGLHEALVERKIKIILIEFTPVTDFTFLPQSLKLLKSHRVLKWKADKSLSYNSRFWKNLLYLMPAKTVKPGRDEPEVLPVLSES
# T3 sequence (looked up) 2: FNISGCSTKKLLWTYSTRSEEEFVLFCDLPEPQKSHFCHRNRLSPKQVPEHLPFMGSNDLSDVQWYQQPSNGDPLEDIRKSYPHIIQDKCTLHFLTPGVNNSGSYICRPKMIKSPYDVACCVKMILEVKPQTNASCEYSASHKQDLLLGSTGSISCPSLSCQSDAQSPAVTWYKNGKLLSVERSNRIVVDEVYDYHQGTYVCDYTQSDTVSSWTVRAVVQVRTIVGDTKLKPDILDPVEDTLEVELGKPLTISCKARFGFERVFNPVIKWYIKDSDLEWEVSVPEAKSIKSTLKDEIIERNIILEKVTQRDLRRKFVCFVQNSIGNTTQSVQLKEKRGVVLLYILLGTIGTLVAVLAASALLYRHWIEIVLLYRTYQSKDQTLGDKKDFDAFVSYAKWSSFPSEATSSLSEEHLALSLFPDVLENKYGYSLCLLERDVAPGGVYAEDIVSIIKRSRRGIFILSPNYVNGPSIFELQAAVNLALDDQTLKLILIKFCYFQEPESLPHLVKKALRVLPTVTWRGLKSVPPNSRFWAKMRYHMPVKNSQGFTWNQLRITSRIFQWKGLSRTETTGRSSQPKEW
# [9] = molecular target: T4, human IL-18BP (amino acids 31-194) (human, UniProt O95998 31-194, biotinylated on the AviTag (BirA ligase) where immobilized or used for staining); assay: SPR; KD BP / KD Ra normalized to WT IL-18
# T4 construct: Secreted decoy receptor; made in insect cells (gp67 signal peptide); also called hIL-18BP
# T4 sequence: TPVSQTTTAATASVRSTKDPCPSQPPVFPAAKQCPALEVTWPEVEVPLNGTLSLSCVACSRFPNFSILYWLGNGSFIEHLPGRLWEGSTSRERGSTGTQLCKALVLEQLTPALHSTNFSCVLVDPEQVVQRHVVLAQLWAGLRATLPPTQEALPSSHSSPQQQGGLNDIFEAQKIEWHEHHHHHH
# [10] = molecular target: T4, human IL-18BP (amino acids 31-194); assay: on-yeast isotherms; BP/Rα KD ratio normalized to WT
# Procedure: (§3) Individual colonies of IL-18 yeast were grown overnight at 30° C. in SDCAA liquid media and induced in SGCAA liquid media for 1 day at 20° C. IL-18 display levels on yeast were verified by flow cytometry using an anti-cMyc tag antibody (anti-myc-PE; Cell Signaling Technologies). Receptor staining with biotinylated IL-18Rα (with or without IL-18Rβ) or biotinylated IL-18BP was performed in PBS supplemented with 0.5% BSA and 2 mM EDTA (PBE) on ice. All analysis was performed on a Sony SA3800 flow cytometer.
# (§4) To additionally characterize the receptor binding activities of the DR-IL-18 variants, the cytokines were expressed recombinantly and surface plasmon resonance for IL-18Rα and IL-18BP was performed (see FIG. 5B for representative traces).
# [11] = molecular target: T4, human IL-18BP (amino acids 31-194); assay: on-yeast isotherms; KD IL-18BP / KD IL-18Rα (20 µM used for NBD)
# [12] = molecular target: T5, human IL-18Rα ectodomain (amino acids 19-329) (human, UniProt Q13478 19-329, biotinylated on the AviTag (BirA ligase)); assay: on-yeast binding isotherm, flow cytometry
# T5 construct: range 19-329; Secreted from insect cells (gp67 signal peptide); also called hIL-18Rα; hIL-18Ra
# T5 sequence: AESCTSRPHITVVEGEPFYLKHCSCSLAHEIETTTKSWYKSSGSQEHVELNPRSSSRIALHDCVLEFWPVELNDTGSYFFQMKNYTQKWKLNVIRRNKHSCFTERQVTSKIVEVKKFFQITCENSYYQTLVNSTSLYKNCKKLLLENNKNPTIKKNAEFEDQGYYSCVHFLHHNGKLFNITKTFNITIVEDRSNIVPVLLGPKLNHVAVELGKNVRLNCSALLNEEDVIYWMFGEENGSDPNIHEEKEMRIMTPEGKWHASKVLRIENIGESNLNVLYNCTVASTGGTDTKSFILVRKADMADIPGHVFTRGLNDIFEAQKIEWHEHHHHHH
# Procedure: as §3, §4
# [13] = molecular target: T4, human IL-18BP (amino acids 31-194); assay: SPR; KD IL-18BP / KD IL-18Rα; SPR; ratio of two KDs
# Procedure: as §2, §4
# [14] = molecular target: T4, human IL-18BP (amino acids 31-194); assay: on-yeast isotherms; KD IL-18BP / KD IL-18Rα (20 µM used for NBD); on-yeast isotherms; 20 µM put in for NBD
# Procedure: as §3, §4
# [15] = molecular target: T3, IL-18 receptor (IL-18R) on HEK-Blue …; assay: cell-based or functional assay; remark: listed apart in the source
# [16] = molecular target: T4, human IL-18BP (amino acids 31-194); assay: on-yeast isotherms; KD IL-18BP / KD IL-18Rα; on-yeast isotherms; ratio of two KDs
binder,measurement,setting,value
B1,KD ratio: IL-18BP/IL-18Rα,[1],0.00183
same,IL-18 BP:Ra Dissociation Constant Ratio,[2],1
same,KD ratio: IL-18BP/IL-18Rα,[3],0.188
same,EC50 (read off the curve),[4],~10 nM
B2,KD ratio: IL-18BP/IL-18Rα,[5],63200
same,IL-18 BP:Ra Dissociation Constant Ratio,[6],3.5e+07
same,KD ratio: IL-18BP/IL-18Rα,[7],> 741
same,EC50 (read off the curve),[4],~10 nM
B3,"EC50 (read off the curve); HEK-Blue IL-18 SEAP reporter, OD 655 nM",[8],~0.9 nM
same,IL-18 BP:Ra Dissociation Constant Ratio,[9],> 7.59e+06
same,Dissociation Constant Ratio normalized to WT IL-18,[10],> 8000
same,KD ratio: IL-18BP/IL-18Rα,[11],540
B4,Kd,[12],91.5 nM
same,KD ratio: IL-18BP/IL-18Rα,[11],> 219
B5,IL-18 BP:Ra Dissociation Constant Ratio,[9],32200
same,KD ratio: IL-18BP/IL-18Rα,[13],41.8
same,KD ratio: IL-18BP/IL-18Rα,[14],> 125
B6,"EC50 (read off the curve); HEK-Blue IL-18 SEAP reporter, OD 655 nM",[15],~4 nM
same,IL-18 BP:Ra Dissociation Constant Ratio,[9],3020
same,KD ratio: IL-18BP/IL-18Rα,[13],2.41
same,KD ratio: IL-18BP/IL-18Rα,[16],300
